The record followed here is US20210253725A1 (BIONTECH, published 2021).

For test [1], the target named is T1, CD27 expressed on the cell surface (HT1080_CD27 cells) (human, UniProt P26842 20-260).
T1 sequence (looked up): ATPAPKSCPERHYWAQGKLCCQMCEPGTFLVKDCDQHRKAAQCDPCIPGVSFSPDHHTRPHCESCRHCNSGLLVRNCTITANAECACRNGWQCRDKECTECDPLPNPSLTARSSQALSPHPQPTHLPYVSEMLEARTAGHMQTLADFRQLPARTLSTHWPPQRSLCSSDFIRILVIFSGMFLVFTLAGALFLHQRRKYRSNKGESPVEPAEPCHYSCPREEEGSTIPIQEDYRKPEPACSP
Nature of the test: cell-based or functional assay.

Test [2] has as its target T2, CD27 protein (His-tagged, Sino Biological Inc. 10039-H08B1) (human, UniProt P26842 20-192).
T2 construct: bought; coated onto ELISA plates; also called human CD27; recombinant protein; not shown: His tag
T2 sequence (looked up): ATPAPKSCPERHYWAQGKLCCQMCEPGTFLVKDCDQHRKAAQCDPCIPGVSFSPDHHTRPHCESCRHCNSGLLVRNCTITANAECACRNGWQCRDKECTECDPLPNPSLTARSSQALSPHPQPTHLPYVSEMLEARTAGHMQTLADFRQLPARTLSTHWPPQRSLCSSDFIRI
Nature of the test: ELISA on coated His-tagged CD27. A general note: In an ELISA, binding on a coated surface is turned into a signal by an enzyme label.

Test [3] deals with T1, CD27 expressed on the cell surface …. Nature of the test: cellular binding assay, HT1080_CD27 cells.
Note: test concentration or dose not given here.

B1: P018.S.02.A.E06 (antibody, V domains shown)
VH: QSLEESGGRLVTPGTPLTLTCTASGFSLSNYSMNWVRQAPGKGLEWIGIINMYGSTYYATWAKGRFTISKTSTTVDLKMTSLTTEDTATYFCARDAGGSTVPWYFDLWGPGTLVTVSS
VL: AYDMTQTPASVSEPVGGTVTIKCQASESISDYLAWYQQKPGQRPKLLIYDASKLASGVPSRFSGSGSGTEFTLTISGVGSADAATYYCQQGYADSNVDNVFGGGTEVVVK
notes: V regions on human Ig constant parts; also called AB27_34
With B1, in test [1], the “IL-8, cross-linked by F(ab')2 fragment [abs. corr.]” value (shortened to “IL-8, cross-linked”) was 1.29 abs. corr and the “IL-8 [abs. corr.]” value was determined as 0.308 abs. corr. Further, in test [2], the “ELISA [abs. corr.]” value came out at 3.32 abs. corr. For the same molecule, in test [3], the “Cellular binding assay [RFU]” value turned out to be 331 RFU.

B2: P018.S.09.A.H03 (antibody, V domains shown)
VH: QSLEESGGRLVTPDESLTLTCTVSGFSLSSNAMIWVRQAPGKGLEWIGIIDTGGSAYYASWAKGRFTISKTSTTVDLKITSPTTEDTATYFCARDRYTDSSGYNLWGQGTLVTVSS
VL: DIVMTQTPASVEAAVGGTVTIKCQASQSIGASLAWYKQKPGQPPKLLIYSASWLASGVPSRFKGSGSGTEFTLTISDLASADAATYYCQSYYYRSSSGYGYAFGGGTEVVVK
notes: V regions on human Ig constant parts; also called AB27_160
Take B2: in test [1], the “IL-8, cross-linked” value worked out at 2.13 abs. corr and the “IL-8 [abs. corr.]” value was found to be 0.578 abs. corr. Besides, the “ELISA [abs. corr.]” value in test [2] amounted to 3.54 abs. corr. For the same molecule, the “Cellular binding assay [RFU]” value in test [3] turned out to be 268 RFU.

B3: P018.S.03.A.C05 (antibody, V domains shown)
VH: QSLEESGGGLVQPGGTLTLTCKASGIDFSSSFYMCWVRQAPGKGLERIACTYNRDGSTYYASWAKGRFTISKTSSTTVTLQMASLTVADTATYFCARDDGYPGSGYVFNLWGPGTLVTVSS
VL: DVVMTQTPASVEAAVGGTVTIKCQASQSVSSYLSWYQQKPGQRPKLLIYGASNLESGVPSRFKGSGSGTEFTLTISGVQSDDAATYYCQGGYYSSGADNNSFGGGTELVVK
notes: V regions on human Ig constant parts; also called AB27_46
B3: in test [1], the “IL-8, cross-linked” value amounted to 1.63 abs. corr and the “IL-8 [abs. corr.]” value was 0.544 abs. corr. Besides, in test [2], the “ELISA [abs. corr.]” value was determined as 3.32 abs. corr. In test [3], the “Cellular binding assay [RFU]” value came to 303 RFU.

B4: P018.S.04.A.A01 (antibody, V domains shown)
VH: QEQLVESGGGLVQPEGSLTLTCTESGFSFSSNAVCWVRQAPGKGLEWIACIYVDSIGSTWYASWAKGRFTISKTSSTTVTLQMTSLTAADTATYFCARGDNIAYFMLWGPGTLVTVSS
VL: DIVMTQTPASVEAAVGGTVTIRCQASESITSFLSWYQQKPGQPPKLLIYKISTLASGVPSRFKASGSGTEFTLTISDLESADAAAYYCQGYYYYSNVVYASNGFGGGTEVVVK
notes: V regions on human Ig constant parts; also called AB27_64
Consider B4, for which, in test [1], the “IL-8, cross-linked” value was 1.47 abs. corr and the “IL-8 [abs. corr.]” value is 0.176 abs. corr. The “ELISA [abs. corr.]” value in test [2] worked out at 3.32 abs. corr. The “Cellular binding assay [RFU]” value in test [3] came out at 297 RFU.

B5: P018.S.03.A.F04 (antibody, V domains shown)
VH: QSVEESGGRLVTPGTPLTLTCTVSGFSLSSYAMGWVRQAPGKGLQWIGILYRNDAASYANWAKGRFTISKTSTTVDLTMPSLTTEDTATYFCVRGYVNDGYYNLWGQGTLVTVSS
VL: AYDMTQTPASVEVAVGGTVTIKCQASESIGYRLAWYQQKPGQPPKLLIFDASDLASGVPSRFKGSGSGKHFTLTISGVQSADAATYYCQQDYSYSITDNCFGGGTEVVVS
notes: V regions on human Ig constant parts; also called AB27_55
As for B5, in test [1], the “IL-8, cross-linked” value is 1.59 abs. corr and the “IL-8 [abs. corr.]” value came out at 0.253 abs. corr. In addition, the “ELISA [abs. corr.]” value in test [2] was found to be 3.31 abs. corr. The “Cellular binding assay [RFU]” value in test [3] stood at 299 RFU.

B6: P018.S.01.A.E03 (antibody, V domains shown)
VH: QSVEESGGRLVTPGTPLTLTCTVSGFSLSSYAMGWVRQAPGKGLQWIGILYRNDAASYANWAKGRFTISKTSTTVDLTMPSLTTEDTATYFCVRGYVNDGYYNLWGQGTLVTVSS
VL: AYDMTQTPASVEVAVGGTVTIKCQASESIGYRLAWYQQKSGQPPKLLIFDASDLASGVPSRFKGSGSGKHFTLTISGVQSADAATYYCQQDYSYSIIDNSFGGGTEVVVK
notes: V regions on human Ig constant parts; also called AB27_15
B6: in test [1], the “IL-8, cross-linked” value stood at 1.22 abs. corr and the “IL-8 [abs. corr.]” value came to 0.436 abs. corr. Moreover, in test [2], the “ELISA [abs. corr.]” value is 3.3 abs. corr. In test [3], the “Cellular binding assay [RFU]” value stood at 335 RFU.

B7: P018.S.10.A.F01 (antibody, V domains shown)
VH: QSLEESGGGLVQPEGSLTLTCTASGFSFSSSDYMCWVRQAPGKGLEWIACMYTGSVEHTYYANWAEGRFTISKTSSTTVTLQMTSLTAADTATYFCARSPTGYPDYGYGGFSLWGPGTLVTVSS
VL: ALVMTQTPSSVSAAVGGTVTINCQASQNIYSNLAWYQQKSGQRPKLLIHGASNLESGVPSRFKGSGSGTEFTLTISDLESADAATYYCQSAYYSGGPDMAFGGGTEVVVK
notes: V regions on human Ig constant parts; also called AB27_179
As for B7, in test [1], the “IL-8, cross-linked” value is 1.05 abs. corr and the “IL-8 [abs. corr.]” value was -0.011 abs. corr. Also, the “ELISA [abs. corr.]” value in test [2] amounted to 3.31 abs. corr. In test [3], the “Cellular binding assay [RFU]” value came out at 329 RFU.

B8: P018.S.07.A.D03 (antibody, V domains shown)
VH: QEQLKESGGGLVTPGGTLTLTCTVSGFSLSGHDMGWVRQAPGKGLEWIGIIGSNSKTYYTNWAKGRFTISKTSTTVGLRITSPTTEDTATYFCTVVGPGVGGFYFDLWGQGTLVTVSS
VL: DVVMTQTPASVSDPVGGTVTIRCQASQSIGSDLAWYQQKPGQPPKLLIYAASTLASGVPSRFSGSGSGTEYTLTISDLESADAATYYCQCTYVGSTYLGAFGGGTEVVVK
notes: V regions on human Ig constant parts; also called AB27_122
B8: in test [1], the “IL-8, cross-linked” value turned out to be 1.68 abs. corr and the “IL-8 [abs. corr.]” value was found to be 0.569 abs. corr. In test [2], the “ELISA [abs. corr.]” value came out at 3.34 abs. corr. In test [3], the “Cellular binding assay [RFU]” value was 409 RFU.

B9: P018.S.04.A.D05 (antibody, V domains shown)
VH: QSLEESGGRLVTPGTPLTLTCTASGIDLSRHAINWVRQAPGKGLEYIGTIYASGSTFYASGAKGRFTISKTSTTVDLGITSLTTEDTATYFCARGITIEWFDLWGQGTLVTVSS
VL: AAVLTQTPSSVSAAVGGTVTINCQSSPSVYSNYLSWFQQKPGQPPKLLIYGAATLASGVPSRFRGSGSGTEFTLTITDVQSDDAATYYCLGGYSDTADTIFGGGTEVVVK
notes: V regions on human Ig constant parts; also called AB27_73
In the case of B9, in test [1], the “IL-8, cross-linked” value is 1.08 abs. corr and the “IL-8 [abs. corr.]” value was determined as 0.241 abs. corr. Besides, the “ELISA [abs. corr.]” value in test [2] worked out at 3.33 abs. corr. Moreover, the “Cellular binding assay [RFU]” value in test [3] was determined as 292 RFU.

B10: P018.S.05.A.B02 (antibody, V domains shown)
VH: QSLEESGGRLVTPGTPLTLTCKVSGFSLSSYDMIWVRQAPGKGLEWIGIVSTGGSAGYASWAKGRFTITKTSTTVDLKITSPTTEDTATYFCARIISGGRDLWGPGTLVTVSS
VL: DIVMTQTPASVEAAVGGTVTIKCQASESISSRLAWYQQKPGQPPKLLIYSASTLAFGVSSRFKGSGSGTQFTLTISDLESADAATYYCQSYYYSSTASYASNNAFGGGTEVVVK
notes: V regions on human Ig constant parts; also called AB27_83
As to B10, in test [1], the “IL-8, cross-linked” value came out at 1.95 abs. corr and the “IL-8 [abs. corr.]” value worked out at 0.633 abs. corr. Besides, the “ELISA [abs. corr.]” value in test [2] was determined as 3.32 abs. corr. Further, the “Cellular binding assay [RFU]” value in test [3] stood at 259 RFU.

B11: P018.S.07.A.D04 (antibody, V domains shown)
VH: QSLEESGGRLVTPGGSLTLTCTVSGIDLSSYAMGWVRQAPGKGLEWIGIISSSGSTYYASWANGRFTISKTSTTVDLKVTSPTTEDTATYFCARDGDSGRGYYFHFWGQGTLVTVSS
VL: AFELTQTPASVSAAVGGTVTIKCQASEDIYSLLAWYQQKPGQPPKLLIYDASDLASGVPSRFSGSGSGTEYTLTISDLESADAAIYYCQQGYTTVTIVDNVFGGGTEVVVK
notes: V regions on human Ig constant parts; also called AB27_123
Regarding B11, in test [1], the “IL-8, cross-linked” value was 1.81 abs. corr and the “IL-8 [abs. corr.]” value amounted to 0.449 abs. corr. For the same molecule, in test [2], the “ELISA [abs. corr.]” value came out at 3.33 abs. corr. Besides, in test [3], the “Cellular binding assay [RFU]” value is 393 RFU.

B12: P018.S.07.A.G02 (antibody, V domains shown)
VH: QSVEESGGRLVTPGTPLTLTCTVSGFSLSSYDMSWVRQAPGKGLEWIGWITTDGGTDYASWAKGRFTVSKASTTVDLKITSPTTEDTATYFCARGYASFNLWGQGTLVTVSS
VL: AQVLTQTPSSVSAAVGGTVTINCQSSQSVLSNSYLAWYQQKPGQPPKLLIYAASSLASGVPSRFKGSGSGTQFTLTISDLESDDAATYYCQGTDYSGGWYVAFGGGTEVVVK
notes: V regions on human Ig constant parts; also called AB27_129
B12: in test [1], the “IL-8, cross-linked” value was 2.41 abs. corr and the “IL-8 [abs. corr.]” value worked out at 0.725 abs. corr. For the same molecule, the “ELISA [abs. corr.]” value in test [2] came to 3.33 abs. corr. In addition, the “Cellular binding assay [RFU]” value in test [3] is 453 RFU.

B13: P018.S.08.A.E02 (antibody, V domains shown)
VH: QSLEESGGRLVTPGGSLTLTCTVSGIDLSSYDMNWVRQAPGEGLEWIGAISTGGDTHYTNWAKGRFTISKTSTTVDLKMTSLTAADTATYFCARGYYTLALWGQGTLVTVSS
VL: DPVLTQTPASVEAAVGGTVTIKCQASQSINSWLSWYQQKPGQPPKRLIYDTSTLESGVPSRFSGGESGTEFTLTISDLESDDAATYYCQSYYYITSSYAITFGGGTEVVVK
notes: V regions on human Ig constant parts; also called AB27_139
Consider B13, for which, in test [1], the “IL-8, cross-linked” value worked out at 1.55 abs. corr and the “IL-8 [abs. corr.]” value amounted to 0.315 abs. corr. In addition, the “ELISA [abs. corr.]” value in test [2] was 3.33 abs. corr. Moreover, the “Cellular binding assay [RFU]” value in test [3] was determined as 387 RFU.

B14: P018.S.08.A.G02 (antibody, V domains shown)
VH: QSVEESGGRLVTPGTPLTLTCTVSGFSLSTYAMSWVRQAPGKGLEWIGMNTRSGIIYYASWAKGRFTISKTSTTVHLKITSPTTEDTATYFCARDLYADVSGYYLGLWGPGTLVTVSS
VL: AQVLTQTPSSVSAAVGGTVTINCQASQSLYNNKNLAWYQQKPGQPPKLLIYYASTLASGVSSRFKGSGSGTQFTLTISDLESDDAATYYCQGEFICSSADCVVFGGGTAVVVK
notes: V regions on human Ig constant parts; also called AB27_141
Regarding B14, in test [1], the “IL-8, cross-linked” value stood at 2.48 abs. corr and the “IL-8 [abs. corr.]” value stood at 0.598 abs. corr. In addition, the “ELISA [abs. corr.]” value in test [2] came to 3.32 abs. corr. For the same molecule, the “Cellular binding assay [RFU]” value in test [3] was 315 RFU.
